The data set deals with the molecule itself. Nature of the data set: cryo-EM structure; single-particle cryo-EM of purified cASIC1-SMA at ~1 mg/ml, pH adjusted to 7.0 with MES pH 6.0, TBS with 1 mM DTT; low pH desensitized state; C3 symmetry in the final refinement.

B1: full-length chicken acid-sensing ion channel 1 (cASIC1) solubilized in styrene maleic acid copolymer (natural protein, Gallus gallus (chicken), UniProt Q1XA76 1-527, looked up)
chain: MMDLKVDEEEVDSGQPVSIQAFASSSTLHGISHIFSYERLSLKRVVWALCFMGSLALLALVCTNRIQYYFLYPHVTKLDEVAATRLTFPAVTFCNLNEFRFSRVTKNDLYHAGELLALLNNRYEIPDTQTADEKQLEILQDKANFRNFKPKPFNMLEFYDRAGHDIREMLLSCFFRGEQCSPEDFKVVFTRYGKCYTFNAGQDGKPRLITMKGGTGNGLEIMLDIQQDEYLPVWGETDETSFEAGIKVQIHSQDEPPLIDQLGFGVAPGFQTFVSCQEQRLIYLPPPWGDCKATTGDSEFYDTYSITACRIDCETRYLVENCNCRMVHMPGDAPYCTPEQYKECADPALDFLVEKDNEYCVCEMPCNVTRYGKELSMVKIPSKASAKYLAKKYNKSEQYIGENILVLDIFFEALNYETIEQKKAYEVAGLLGDIGGQMGLFIGASILTVLELFDYAYEVIKHRLCRRGKCRKNHKRNNTDKGVALSMDDVKRHNPCESLRGHPAGMTYAANILPHHPARGTFEDFTC
notes: the final models contain residues 17-462; Homotrimer in SMA copolymer with endogenous lipids; Expression is 'as previously described (Yoder et al., 2018a)'; also called cASIC1-SMA; SMA-cASIC1a
With B1, the stoichiometry N (commonly a count of units in the complex or per binding partner) stood at 3.
